The text below walks through data of patent publication US20040127421A1 (KIMBERLY CLARK WORLDWIDE, published 2004).

Usually Ki stands for a dissociation constant, usually derived from enzyme kinetics or from competition with a known ligand. Low readings indicate a stronger hold on the target, high ones a looser hold on the target.

The target in one experiment is T1, MMP-3 (UniProt P08254 100-477, limits assumed).
T1 construct: also called matrix metalloproteinase-3
The experiment can be described thus: enzyme inhibition, FRET peptide substrate.

The target of a further experiment is T2, MMP-7 (UniProt P09237 95-267, limits assumed).
T2 construct: also called matrix metalloproteinase-7
T2 sequence (looked up): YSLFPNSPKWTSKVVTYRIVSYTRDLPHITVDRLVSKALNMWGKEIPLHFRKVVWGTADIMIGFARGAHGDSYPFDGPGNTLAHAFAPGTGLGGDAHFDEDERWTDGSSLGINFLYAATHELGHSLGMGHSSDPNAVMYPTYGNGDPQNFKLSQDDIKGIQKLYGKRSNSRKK
Briefly: enzyme inhibition, FRET peptide substrate.

Experiment [1] has as its target T3, Active MMP-9 enzyme (UniProt P14780 107-707, limits assumed).
T3 construct: mature; also called matrix metalloproteinase-9; mature MMP-9
Briefly: enzyme inhibition, FRET peptide substrate.
Method: (§1) The second assay utilized the technique of fluorescence resonance energy transfer (FRET). The substrate peptide (Calbiochem) of seven amino acids was coupled to a carboxyl terminal dinitrophenyl acceptor, and an amino terminal 2-aminobenzo-anthraniloyl (Abz) moiety donor. […] The protein mixture was added to the fluorescent peptide substrate, and was quickly mixed. Fluorescence intensity as a function of time was measured with a Dynex MFX fluorescence microtiter plate reader. Fluorescence intensity was related back to moles of peptide cleaved by producing a standard curve with an Abz containing non-FRET peptide.
(§2) These assays utilized FRET peptides that incorporated specific MMP cleavage sites into their sequence.

Experiment [2] deals with T3, Active MMP-9 enzyme. The experiment can be described thus: enzyme inhibition, fluoresceinated collagen substrate, Dixon plot. On the procedure:
Two enzymatic assays were performed. The first assay measured the enzymatic hydrolysis of fluoresceinated collagen by MMP-9 as a function of time. […] The protein mixture was added to the collagen substrate, and was quickly mixed. Fluorescence emission intensity at 520 nm was measured as a function of time (excitation wavelength 495 nm) in a Shimadzu RF5301 fluorometer (Lakowicz, 1983). The fluorescein release assay was used to determine the inhibitory constant (Ki) of the peptide inhibitor ([I]) according to Segel (1993) via the use of Dixon plots (1/v vs. [I]), such that: […]

The target in experiment [3] is T3, Active MMP-9 enzyme. The experiment can be described thus: SPR (BIACore-X), calculated from ka/kd.
Method: MMP-9 at a concentration of 75 ng/μL was coupled to the activated surface at a flow rate of 10 μL per minute for ten minutes. The final surface was inactivated by flowing 1 M ethanolamine-HCl at a rate of 10 μL per minute for five minutes over the sensor surface. […] The association and dissociation phases of the binding isotherms were smoothed by an automated FFT routine prior to modeling rate constants. Binding isotherms were evaluated by simultaneously fitting the forward (kₐ) and reverse (kd) rate constants to:
There was an observed bulk transport effect of approximately 100 response units at the start of the dissociation phase that was not modeled.
A further experiment deals with T4, MMP-2 (Homo sapiens (Human), UniProt P08253 110-660).
T4 construct: an active enzyme without signal and propeptide is likely; also called matrix metalloproteinase-2
T4 sequence: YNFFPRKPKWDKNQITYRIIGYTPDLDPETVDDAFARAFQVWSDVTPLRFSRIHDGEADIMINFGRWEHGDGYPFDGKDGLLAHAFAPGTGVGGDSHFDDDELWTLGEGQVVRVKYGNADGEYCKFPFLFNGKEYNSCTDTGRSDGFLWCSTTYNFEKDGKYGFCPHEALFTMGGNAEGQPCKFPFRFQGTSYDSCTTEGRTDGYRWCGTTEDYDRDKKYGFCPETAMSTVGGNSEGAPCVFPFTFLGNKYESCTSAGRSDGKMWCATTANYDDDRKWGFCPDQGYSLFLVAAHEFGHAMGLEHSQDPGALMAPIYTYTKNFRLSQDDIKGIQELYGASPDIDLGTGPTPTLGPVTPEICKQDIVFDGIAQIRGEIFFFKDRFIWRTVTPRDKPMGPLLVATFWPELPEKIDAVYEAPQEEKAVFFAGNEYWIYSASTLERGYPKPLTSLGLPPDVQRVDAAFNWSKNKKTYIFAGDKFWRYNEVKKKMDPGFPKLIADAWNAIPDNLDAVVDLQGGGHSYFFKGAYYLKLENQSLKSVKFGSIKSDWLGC
The experiment can be described thus: isothermal titration calorimetry, 1 mM 19-mer into 20 µM MMP-2, 20 mM cacodylate pH 6.8, 10 mM NaCl, 25° C.

Experiment [4] addresses T3, Active MMP-9 enzyme. The experiment can be described thus: isothermal titration calorimetry, 1 mM peptide into 20 µM MMP-9, 20 mM cacodylate pH 6.8, 20 mM NaCl. On the procedure:
Isothermal titration calorimetry (ITC) was performed with a VP-ITC instrument from MicroCal, Inc. Titrations were carried out by injecting 5 μL of an inhibitor peptide solution (at concentration ranges from 0.5 mM to 2.0 mM) into the 1.4 mL stirred reaction cell. MMP-9 ranged in concentration from 50 to 80 μM in the cell. Both the inhibitor and the enzyme were in 20 mM sodium cacodylate (pH 5.5-7.0), 40 mM NaCl, or 20 mM Tris-HCl (pH 7.0-7.5), 40 mM NaCl. Titrations were conducted between 20° C. and 40° C. Typical experimental conditions for the titrations were a 10 second injection period followed by a 240 second delay between injections for a total of 40 injections. Blank titrations of inhibitor peptide into buffer were performed in order to correct for heats of dilution and mixing.
The peptide was dissolved in 20 mM cacodylate (pH 6.8), 20 mM NaCl at a final concentration of 1 mM. MMP-9 was dialyzed into the same buffer at a final concentration of 20 μM. A series of standard injections were performed as described above.
Background: ITC needs no label: the signal is the heat of the interaction.

T3 sequence (P14780 107-707 limits assumed): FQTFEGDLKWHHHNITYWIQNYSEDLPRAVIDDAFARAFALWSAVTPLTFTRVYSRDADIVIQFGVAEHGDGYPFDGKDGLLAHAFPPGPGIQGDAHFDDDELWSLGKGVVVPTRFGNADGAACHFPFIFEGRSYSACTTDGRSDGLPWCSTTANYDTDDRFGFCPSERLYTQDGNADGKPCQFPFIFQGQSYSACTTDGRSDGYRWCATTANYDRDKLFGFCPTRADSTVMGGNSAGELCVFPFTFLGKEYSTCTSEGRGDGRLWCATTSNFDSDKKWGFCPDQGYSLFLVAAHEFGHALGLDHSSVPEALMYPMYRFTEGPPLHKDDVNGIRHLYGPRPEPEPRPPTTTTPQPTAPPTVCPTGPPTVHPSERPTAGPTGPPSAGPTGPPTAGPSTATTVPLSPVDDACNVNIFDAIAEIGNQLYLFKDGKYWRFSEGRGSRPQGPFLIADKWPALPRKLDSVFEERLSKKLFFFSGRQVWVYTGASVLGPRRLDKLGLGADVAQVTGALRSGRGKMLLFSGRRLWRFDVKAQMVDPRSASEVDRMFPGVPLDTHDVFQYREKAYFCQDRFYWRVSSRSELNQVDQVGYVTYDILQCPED
T1 sequence (P08254 100-477 limits assumed): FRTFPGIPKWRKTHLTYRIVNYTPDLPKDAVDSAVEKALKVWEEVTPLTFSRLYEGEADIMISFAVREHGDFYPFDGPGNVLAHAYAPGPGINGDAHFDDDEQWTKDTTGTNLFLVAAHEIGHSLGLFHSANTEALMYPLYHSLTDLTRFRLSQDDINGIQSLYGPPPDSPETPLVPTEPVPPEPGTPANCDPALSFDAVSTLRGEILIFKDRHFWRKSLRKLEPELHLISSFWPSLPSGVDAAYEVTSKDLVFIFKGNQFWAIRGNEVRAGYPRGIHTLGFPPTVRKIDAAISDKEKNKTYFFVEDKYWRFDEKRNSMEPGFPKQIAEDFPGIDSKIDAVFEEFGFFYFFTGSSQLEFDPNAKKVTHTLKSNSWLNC
Method for MMP-3: as §1, §2
Method for MMP-7: as §1, §2

B1: 19-mer (SEQ ID NO:11) PRCGNPDVANYNFFPRKPK (peptide)
peptide: H-PRCGNPDVANYNFFPRKPK-OH
notes: Synthesized by Sigma-Genosys, >95% pure by RP-HPLC; Free termini; the acetylated/amidated Ac-19-mer was used only in migration assays; also called 19mer peptide
As to B1, the Ki was determined as 6.4 µM in the experiment with MMP-3, 22.8 µM in the experiment with MMP-7, 45.2 µM in the experiment with Active MMP-9 enzyme [1] and 30.3 µM with Active MMP-9 enzyme [2]. Further, the Ka was 5.3e+06 M⁻¹ in the experiment with Active MMP-9 enzyme [3], 2.4e+06 M⁻¹ in the experiment with MMP-2 and 1.65e+06 M⁻¹ with Active MMP-9 enzyme [4]. The Stoichiometry stood at 0.99 with MMP-2 and 0.975 in the experiment with Active MMP-9 enzyme [4]. For the same molecule, the ΔH in the experiment with MMP-2 was -15.4 kcal/mol; with Active MMP-9 enzyme [4], -26.1 kcal/mol. For the same molecule, the ΔS with MMP-2 was -21.1 cal mol^-1 K^-1; with Active MMP-9 enzyme [4], -11.6 cal mol^-1 K^-1.

Regarding NYNFFPRKPK [10-mer (SEQ ID NO:13) NYNFFPRKPK], the Ki was 328 µM in the experiment with Active MMP-9 enzyme [1] and 221 µM with Active MMP-9 enzyme [2].

As for PRCGNPDVA [9-mer (SEQ ID NO:12) PRCGNPDVA], the Ki with Active MMP-9 enzyme [1] came out at 233 µM; with Active MMP-9 enzyme [2], 186 µM.
